Experimental data from US20210040194A1.

How the values were obtained:
Assay in all cases: cell-based or functional assay
mouse Ang2 (mouse) = mouse Ang2 (mouse) (UniProt O35608)
cyno Ang2 (cyno) = target: cyno Ang2 (cyno)
[1] = target: Human ANG-2 (huAng2) (human) (UniProt O15123)
Sequence of Human ANG-2 (huAng2) (human) (O15123 19-496 limits assumed): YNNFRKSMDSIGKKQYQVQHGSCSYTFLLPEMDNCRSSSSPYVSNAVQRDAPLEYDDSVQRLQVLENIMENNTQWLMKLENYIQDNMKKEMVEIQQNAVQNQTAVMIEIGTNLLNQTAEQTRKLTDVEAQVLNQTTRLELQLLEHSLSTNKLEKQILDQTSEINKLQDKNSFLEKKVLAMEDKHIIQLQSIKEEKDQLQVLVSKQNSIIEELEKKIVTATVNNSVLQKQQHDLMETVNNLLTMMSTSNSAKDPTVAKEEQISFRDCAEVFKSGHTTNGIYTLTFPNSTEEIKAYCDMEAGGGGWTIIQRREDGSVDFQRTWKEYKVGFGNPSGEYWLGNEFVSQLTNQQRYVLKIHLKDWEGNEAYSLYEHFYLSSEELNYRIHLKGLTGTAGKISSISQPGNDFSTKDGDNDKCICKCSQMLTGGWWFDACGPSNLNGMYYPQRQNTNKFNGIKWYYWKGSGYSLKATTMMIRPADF

Sequence of mouse Ang2 (mouse) (O35608 19-496 limits assumed): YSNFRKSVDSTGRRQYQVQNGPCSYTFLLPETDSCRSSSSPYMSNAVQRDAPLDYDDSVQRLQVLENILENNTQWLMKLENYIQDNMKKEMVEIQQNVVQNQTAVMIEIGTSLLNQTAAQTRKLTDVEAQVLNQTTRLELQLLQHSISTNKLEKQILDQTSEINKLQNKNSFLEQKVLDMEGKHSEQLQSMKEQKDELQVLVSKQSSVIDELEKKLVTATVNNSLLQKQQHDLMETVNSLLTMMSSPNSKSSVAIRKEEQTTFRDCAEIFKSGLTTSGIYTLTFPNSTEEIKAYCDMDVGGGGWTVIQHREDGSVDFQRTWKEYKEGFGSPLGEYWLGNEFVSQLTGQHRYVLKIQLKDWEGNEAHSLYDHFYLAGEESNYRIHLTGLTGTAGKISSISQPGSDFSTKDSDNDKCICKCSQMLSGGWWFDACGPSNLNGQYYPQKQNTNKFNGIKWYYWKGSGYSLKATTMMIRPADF

Mu pTie2 EC50 (nM) (mouse Ang2 (mouse)): 137 nM
Cyno pTie2 EC50 (nM) (cyno Ang2 (cyno)): 33.2 nM
Hu pTie2 EC50 (nM), Hek293-Tie2 cells [1]: 2.65 nM
Substance: MEDI3617 (antibody)
